In patent US20240018252A1:

Each binder was assayed against human CD3 (huCD3ed) (human) (UniProt P07766) (assay: Biacore SPR, bispecific hIgG2dA format, 37 C; CD3 antigen not given).
human CD3 (huCD3ed) (human), sequence (P07766 23-126, chain 1 of 2): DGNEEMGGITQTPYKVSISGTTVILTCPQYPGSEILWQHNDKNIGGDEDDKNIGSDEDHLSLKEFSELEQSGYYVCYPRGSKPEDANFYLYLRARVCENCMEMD
human CD3 (huCD3ed) (human), sequence (P04234 22-105, chain 2 of 2, further chain): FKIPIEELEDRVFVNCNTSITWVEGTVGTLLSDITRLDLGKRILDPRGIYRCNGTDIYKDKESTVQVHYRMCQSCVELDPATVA

Binder | Kd | koff | kon | t½
h2B4-1d_Ep (bispecific antibody, part only; not given: anti-EpCam arm, constant regions, V domains shown, not shown: another chain or arm of the molecule; a dimerising Fc or GST; small tags and cut ends) VH: EVQLVESGGGLVQPGGSLRLSCAASGFTFSDYYMTWVRQAPGKGLEWVAFIRNRARGYTSDHNASVKGRFTISRDNAKNSLYLQMNSLRAEDTAVYYCARDRPSYYVLDYWGQGTTVTVSS VL: DIVMTQSPDSLAVSLGERATINCTSSQSLFNVRSRKNYLAWYQQKPGQPPKLLISWASTRESGVPDRFSGSGSGTDFTLTISSLQAEDVAVYYCKQSYDLFTFGSGTKLEIK | 40.4 nM | 0.0237 s⁻¹ | 586000 M⁻¹ s⁻¹ | 29.4 s
h2B4-yaesTK_Ep (bispecific antibody, part only; not given: anti-EpCam arm, constant regions, V domains shown, not shown: another chain or arm of the molecule; a dimerising Fc or GST; small tags and cut ends) VH: EVQLVESGGGLVQPGGSLRLSCAASGFTFSDYYMTWVRQAPGKGLEWVAFIRNRARGYTSDYAESVKGRFTISRDNAKNSLYLQMNSLRAEDTAVYYCARDRPSYYVLDYWGQGTTVTVSS VL: DIVMTQSPDSLAVSLGERATINCKSSQSLFNVRSRKNYLAWYQQKPGQPPKLLISWASTRESGVPDRFSGSGSGTDFTLTISSLQAEDVAVYYCKQSYDLFTFGSGTKLEIK | 54.4 nM | 0.0258 s⁻¹ | 474000 M⁻¹ s⁻¹ | 27 s
h2B4-hnpsTK_Ep (bispecific antibody, part only; not given: anti-EpCam arm, constant regions, V domains shown, not shown: another chain or arm of the molecule; a dimerising Fc or GST; small tags and cut ends) VH: EVQLVESGGGLVQPGGSLRLSCAASGFTFSDYYMTWVRQAPGKGLEWVAFIRNRARGYTSDHNPSVKGRFTISRDNAKNSLYLQMNSLRAEDTAVYYCARDRPSYYVLDYWGQGTTVTVSS VL: DIVMTQSPDSLAVSLGERATINCKSSQSLFNVRSRKNYLAWYQQKPGQPPKLLISWASTRESGVPDRFSGSGSGTDFTLTISSLQAEDVAVYYCKQSYDLFTFGSGTKLEIK | 31.2 nM | 0.0235 s⁻¹ | 754000 M⁻¹ s⁻¹ | 29.4 s
h25A8-B5_Ep (bispecific antibody, part only; not given: anti-EpCam arm, constant regions, V domains shown, not shown: another chain or arm of the molecule; a dimerising Fc or GST; small tags and cut ends) VH: EVQLVESGGGLVKPGGSLRLSCAASGFTFSTYAMNWVRQAPGKGLEWVGRIRSKINNYATYYAESVKGRFTISRDDSKNTLYLQMNSLKTEDTAVYYCVRHETLRSGISWFASWGQGTLVTVSS VL: QAVVTQEPSLTVSPGGTVTLTCRSSTGAVTTSNYANWVQQKPGQAPRGLIGGTNTRAPGTPARFSGSLLGGKAALTLSGAQPEDEAEYYCVLWYNNYWVFGGGTKLTVL | 45 nM | 0.0581 s⁻¹ | 1.29e+06 M⁻¹ s⁻¹ | 12 s

The remaining lines, values ahead:

Kd | koff | kon | t½ | Binder
31 nM | 0.0213 s⁻¹ | 687000 M⁻¹ s⁻¹ | 32.4 s | h2B4-TK_Ep (bispecific antibody, part only; not given: anti-EpCam arm, constant regions, V domains shown, not shown: another chain or arm of the molecule; a dimerising Fc or GST; small tags and cut ends) VH: EVQLVESGGGLVQPGGSLRLSCAASGFTFSDYYMTWVRQAPGKGLEWVAFIRNRARGYTSDHNASVKGRFTISRDNAKNSLYLQMNSLRAEDTAVYYCARDRPSYYVLDYWGQGTTVTVSS VL: DIVMTQSPDSLAVSLGERATINCKSSQSLFNVRSRKNYLAWYQQKPGQPPKLLISWASTRESGVPDRFSGSGSGTDFTLTISSLQAEDVAVYYCKQSYDLFTFGSGTKLEIK
21 nM | 0.0241 s⁻¹ | 1.15e+06 M⁻¹ s⁻¹ | 28.8 s | h25A8-B12_Ep (bispecific antibody, part only; not given: anti-EpCam arm, constant regions, V domains shown, not shown: another chain or arm of the molecule; a dimerising Fc or GST; small tags and cut ends) VH: EVQLVESGGGLVKPGGSLRLSCAASGFTFSTYAMNWVRQAPGKGLEWVGRIRSKINNYATYYAESVKGRFTISRDDSKNTLYLQMNSLKTEDTAVYYCVRHETLRSGISWFASWGQGTLVTVSS VL: QAVVTQEPSLTVSPGGTVTLTCRASTGAVTTSNYANWVQQKPGQAPRGLIGGTNTRAPGTPARFSGSLLGGKAALTLSGAQPEDEAEYYCVLWYNNHWVFGGGTKLTVL
18.7 nM | 0.0222 s⁻¹ | 1.19e+06 M⁻¹ s⁻¹ | 31.2 s | h25A8-B8_Ep (bispecific antibody, part only; not given: anti-EpCam arm, constant regions, V domains shown, not shown: another chain or arm of the molecule; a dimerising Fc or GST; small tags and cut ends) VH: EVQLVESGGGLVKPGGSLRLSCAASGFTFSTYAMNWVRQAPGKGLEWVGRIRSKINNYATYYAESVKGRFTISRDDSKNTLYLQMNSLKTEDTAVYYCVRHETLRSGISWFASWGQGTLVTVSS VL: QAVVTQEPSLTVSPGGTVTLTCRSSTGAVTTSNYANWVQQKPGQAPRGLIGGTNTRAPGTPARFSGSLLGGKAALTLSGAQPEDEAEYYCVLWYNNHWVFGGGTKLTVL
